Reference: the supplement of paper PMC9170038

Test system: MS2 coat protein
Assay: apparent KD of MS2 coat protein; designed switch direction (-1 OFF switch, 1 ON switch): -1; higher = weaker reporter binding
How it was run: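 An oligonucleotide input, 200 uM small-molecule ligand, or no input was present during titration of SNAP-549-labelled MS2 coat protein, which was doubled from 0.7 or 1.5 nM to 3 µM. Designed RNA switches had been transcribed on Illumina chips by stalled E. coli RNA polymerase. Apparent KD per design is the median over clusters of curves fitted to normalised cluster fluorescence.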

[1] = input ligand: microRNA oligo, concentration not stated
[2] = Eterna round: R95, input ligand: microRNA oligo, concentration not stated
[3] = Eterna round: R95, input ligand: FMN 200 uM
[4] = Eterna round: R95, input ligand: none

Sequence | apparent KD of MS2 coat protein (input ligand: FMN 200 uM) [nM] | apparent KD of MS2 coat protein [1] [nM] | apparent KD of MS2 coat protein (input ligand: none) [nM] | apparent KD of MS2 coat protein [2] [nM] | apparent KD of MS2 coat protein [3] [nM] | apparent KD of MS2 coat protein [4] [nM]
ACAUGAGGAUCACCCAUGUACAGGGUUUAGUUUCAUCGUUUGAAGGAUAUACUCAGUUAGUUGUUGUAGAAGGUCACAUUUUGG [JR_ExcNG3_Sub004] (Eterna round: R96, puzzle: Exclusion NG 3) | 138 | 108 | 126 | – | – | –
GGGCCCGGAGGAUAUACAUGAGGAUCACCCAUGUAGGGCCCGGGUAUUCCCGGGCCCUGUAGAAGGUUGGGCCC [-44, -41.2 kcal, A 19%, 0,5c] (Eterna round: R97, puzzle: Exclusion 3) | 17.8 | – | 15.8 | – | – | –
UCUGGUCGAGGAUAUACAUUCGUGCUUCGGCACGUAAGAUCACAUGAGGAUCACCCAUGUAGAAGGCGACCAGA [E2/5-A3] (Eterna round: R97, puzzle: Exclusion 2) | 1050 | – | 98.8 | – | – | –
GAAUGAGAGCAGGAUAUCUUAUAAAUGUAUGAAAGAGAAGGGCUCACAUGAGGAUCACCCAUGUGGUCCUAGAA [jl-ex6-4.78 jandersonlee mod] (Eterna round: R97, puzzle: Exclusion 6) | 506 | – | 36.9 | – | – | –
CUAAAUCAUGUAGGAUAUGCGUGGCGAAGCUAUGCAGAAGGACAUGAGGAUCACCCAUGUCUUUCCGUCUGAGUACAGACGGGA [Mat - Exclusion NG 1 - Mod of JL - D45] (Eterna round: R96, puzzle: Exclusion NG 1) | 155 | 16.4 | 18 | – | – | –
UUUAAUCAUGUAGGAUAUGCGUGGCGAAGCUAUGCAGAAGGACAUGAGGAUCACCCAUGUUCUAGCGUCUGCGUACAGAUGCUA [JL ENG1 1.36] (Eterna round: R96, puzzle: Exclusion NG 1) | 334 | 33 | 47 | – | – | –
CCAUAUUCGAAGGAUAUGCAAUUGGAUAGAUUCGCAGAAGGUCGAACAUGAGGAUCACCCAUGUCCCUGGUGAA [Eternabot (L2) Solution 89] (Eterna round: R97, puzzle: Exclusion 6) | 903 | – | 133 | – | – | –
UUAAUUAAUUAAGCGCAAGAUCACAUGAGGAUCACCCAUGUAUAGGAUAUCAGCUCGUGUAGAGCUGAGAAGGAUACAUAGCGC [ExNG3/2-A3] (Eterna round: R96, puzzle: Exclusion NG 3) | 1030 | 184 | 143 | – | – | –
ACAUGAGGAUCACCCAUGUAAUCAUGAUGGCUGAUGUAGAGUCAGGAUAUGUGUGGCUUUCUAUCACAGAAGGGACAAGACUGG [Deportation 36 - Jieux - Exclusion NG 3] (Eterna round: R96, puzzle: Exclusion NG 3) | 42.9 | 26.2 | 34.9 | – | – | –
GCAGCAAAUUCCAUUAAAACCACAUGAGGAUCACCCAUGUCUCAGGAUAUGGUCUGGAUUACAGGCCAGAAGGGAGAAAGCUGC [Eli exng3 - 055] (Eterna round: R96, puzzle: Exclusion NG 3) | 10.1 | 11.9 | 16.3 | – | – | –
CGGCACCGAGGAUAUACAUGAGGAUCACCCAUGUUUGUUGGGCCCUUAAGAUCUACGUGUAGAAGGUGGGUCGA [Edaribi] (Eterna round: R96, puzzle: Exclusion 3) | 241 | 147 | 173 | – | – | –
AGGAUGUUAGGAUAUCGGAUAUGCUGGAGGAGGUGGAUUUACGAGAAGGAACAUGAGGAUCACCCAUGUUGGAG [JR_Exclu4_Sub047] (puzzle: Exclusion 4) | – | – | – | 20.9 | – | –
CAUCCAGCUUCCCUUCAAAACAUGAGGAUCACCCAUGUUUUUGUUUUUACAAGCUUUUUGCUUUUUGCUCGUCUUGU [A Humble Attempt... Again] (puzzle: Sensor v3, turn-off variant 1) | – | – | – | 16 | 20.5 | 21.5
GCCAGAGCAGGAUAUUCAGUAUCACACAUGAGGAUCACCCAUGUCUAUCGAAAGAUAGAGGGAGAAGGGCUCUGGC [Mat - Exclusion 5 - Eli mod - D95] (puzzle: Exclusion 5) | – | – | – | 105 | 28.4 | 118
ACGCGAGUAGGAGGAUAUUCUGAGCGCGGGCCAGAAGAAGGCCUAGAUCGUGAACAUGAGGAUCACCCAUGUGGGAUGAUCUAA [Vevexeaus] (Eterna round: R96, puzzle: Exclusion NG 1) | 180 | 224 | 307 | – | – | –
UAUAUACAUGAGGAUCACCCAUGUAAGGAUAUGCUUUAUUAUUAUUAUUAUUAUUAUUGCAGAAGGUACAUUAU [LRO-Excl01-05] (Eterna round: R97, puzzle: Exclusion 1) | 38.4 | – | 33.8 | – | – | –
UUUGAUUGCACAGGAUAUUGUCAUUUGAGUUGUCAAGAAGGGUGUACAUGAGGAUCACCCAUGUAAUGGUUGCCUCGCUGACUU [JR_ExcNG1_Sub008] (Eterna round: R96, puzzle: Exclusion NG 1) | – | 77.1 | – | – | – | –

Sequence | apparent KD of MS2 coat protein (input ligand: FMN 200 uM) [nM] | apparent KD of MS2 coat protein [1] [nM] | apparent KD of MS2 coat protein (input ligand: none) [nM] | apparent KD of MS2 coat protein [2] [nM] | apparent KD of MS2 coat protein [3] [nM] | apparent KD of MS2 coat protein [4] [nM]
UUCCAACGAGGAUAUCGAUGGUGGAACAUGAGGAUCACCCAUGUAUGAGAUAGUGUAGUUCGAGAAGGCGUUCAGU [JR_E5_Sub055] (puzzle: Exclusion 5) | – | – | – | 41.9 | – | –
UAUUCGCGAGGAUAUGCAGUCGAGUCCAUUACGUGUCUGGGACUUGAGGAUCACCCAAGUAGAAGGCGUCUCAU [salish99_ex2_r4_642] (Eterna round: R97, puzzle: Exclusion 2) | 124 | – | 123 | – | – | –
AGGUGUAGAGGAUAUCUCUUCUCUCACAUGAGGAUCACCCAUGUCCUGGGUACCUAGGAGAGAGAAGGCUACACCA [Omei Ex5 D11] (Eterna round: R97, puzzle: Exclusion 5) | 1370 | – | 587 | – | – | –
CUGAGCAGACGGAGAUCCAACAUGAGGAUCACCCAUGUCUCAAAAGCUUUUUGCUUGUCUUAUUCUCCUCUGUUCUC [Bieda] (puzzle: Sensor v3, turn-off variant 1) | – | – | – | 35.5 | 13.5 | 11.1
CGUCCACUUGAGGAUCACCCAAGUUAGGAUAUCUCCCGGCUCGCAAAUGCAGUCGGUCAGAGAAGGAACCAGGG [Qualaon] (Eterna round: R97, puzzle: Exclusion 1) | 59.6 | – | 26.7 | – | – | –
UUAUACCUAGGAUAUACCUUUGGGUGUAGCCUAAUGUCUGGACAUGAGGAUCACCCAUGUAGAAGGAGGCGAAA [EX2 A.7] (Eterna round: R97, puzzle: Exclusion 2) | 244 | – | 78 | – | – | –
GUAGAGUCAGGAUAUACAAGAUCGAUAGAUCGGCGAUCCAUACAUGAGGAUCACCCAUGUAGAAGGGACUCUAC [Mat - Exclusion 2 - Eli Mod - D3] (Eterna round: R97, puzzle: Exclusion 2) | 693 | – | 40.2 | – | – | –
ACGUGAUAUCUGUCGGUGGACAUGAGGAUCACCCAUGUAAGCUUCUUGCUCGUCUUAUAACCCGGUGACAGACCUUC [Zalaso] (puzzle: Sensor v3, turn-off variant 1) | – | – | – | 449 | 42.8 | 47
UCGCUGCGAGGAUAUACAUGAGGAUCACCCAUGUACGGGUCCGGGUCUUUGUCUAUUGGUAGAAGGCGCAGUGA [JL Laongeedie mod 9] (puzzle: Exclusion 3) | – | – | – | 51.5 | – | –
CGCUGUUGAGGAUAUGGGCGUGGUUACAUGAGGAUCACCCAUGUGGUGUCGCGCGUGGGUCCAGAAGGCGGCGGUG [-31.8, -28.5 kcal, 16% A] (Eterna round: R97, puzzle: Exclusion 5) | 33.5 | – | 17.5 | – | – | –
AAGAAACAUGAGGAUCACCCAUGUGAGGAUAUGAAAAAGAAAAGAAAAGAAAGAAGAUUCAGAAGGCACAAAGG [salish99-ex1_r3_021] (puzzle: Exclusion 1) | – | – | – | 31.9 | 60.7 | 33.9
CGCCUCAGAGGAUAUACUACGGUUUCCUCAUGAUGCGGCCAACAUGAGGAUCACCCAUGUAGAAGGCUGAGAAA [EX2 A.5] (Eterna round: R97, puzzle: Exclusion 2) | 17.3 | – | 52.2 | – | – | –
ACAAGCAUUUAGUAAAUGGACAUGAGGAUCACCCAUGUGAGUCCGAAGAGAUAAGAUAUAUUGUCGGCUCGUCUUAU [AK-miRNA-r3-22] (Eterna round: R97, puzzle: Sensor, turn-off variant 1) | 55.9 | – | 94.8 | – | – | –
UACCGGCGGACCGAGGCUUUUUGCUCGUCUUAUACUACAACAUGAGGAUCACCCAUGUGGUGGUGGUCCGUUGUAGU [JL ViennaUCT Bitein mod 5] (puzzle: Sensor v3, turn-off variant 2) | – | – | – | 6.09 | 21.7 | 16.2
ACCAGACAUGAGGAUCACCCAUGUCAGGAUAUUAUUCUACCUGAAGUUCGGGAUUGUGUGAGAAGGGACUGGGA [Eternabot (L2) Solution 86] (Eterna round: R97, puzzle: Exclusion 1) | 17.4 | – | 16.1 | – | – | –
AAGUACCGGUGAGGAUAUUUAUAAUAGAGCUUUAUGAUAUACAUGAGGAUCACCCAUGUUACUUUAAAGAAGGCAUCGGAUUAA [Mat - Exclusion NG 2 - Mod of JL - D92] (Eterna round: R96, puzzle: Exclusion NG 2) | 19.2 | 11.1 | 18.1 | – | – | –
GGUGCGUAUGUGAGGAUAUGCUGGUCCUUGGAUCAGCAGAAGGCACAUGAGGAUCACCCAUGUGGUGUCGUACA [salish99_Bmod_Ex4_014] (puzzle: Brourd's mod of Exclusion 4) | – | – | – | 255 | – | –
